Experimental data from patent US20120316071A1 (published 2012).
Values belong to the binder of their own block, whether it stands above or below them.

Key:
[1] = molecular target: T1, rHuman IGF-1 sR (insulin-like growth factor-1 soluble receptor), CF (R&D Systems Cat#391-GR) (human, UniProt P08069 31-932); assay: MSD multispot ECL, antigen spotted on plate, Fab in solution; blank spot of this row 184
T1 construct: Bought recombinant soluble receptor; The column head prints only 'IGF-1'

[2] = molecular target: T2, rHuman P-Cadherin/Fc Chimera, CF (R&D Systems Cat#861-PC) (human, UniProt P22223 108-654); assay: as above
T2 construct: Bought recombinant protein; Fc part of the bought chimera not given

[3] = molecular target: T3, Recombinant Human DLL4 (R&D Systems Cat#1506-D4/CF) (human, UniProt Q9NR61 27-524); assay: as above
T3 construct: Bought recombinant protein; also called delta-like protein 4; rHuman DLL4

[4] = molecular target: T4, rHuman ErbB2/Fc Chimera, CF (R&D Systems Cat#1129-ER) (human, UniProt P04626 23-652); assay: as above
T4 construct: Bought recombinant protein; Fc part of the bought chimera not given

[5] = molecular target: T5, rHuman EGF R/Fc Chimera, CF (R&D Systems Cat#344-ER) (human, UniProt P00533 25-645); assay: as above
T5 construct: Bought recombinant protein; Fc part of the bought chimera not given

[6] = molecular target: T6, rHuman HGF R/c-MET/Fc Chimera, CF (R&D Systems Cat#358-MT/CF) (human, UniProt P08581 25-932); assay: as above
T6 construct: Bought recombinant protein; also called HGF R/Fc; Fc part of the bought chimera not given

[7] = molecular target: T1, rHuman IGF-1 sR (insulin-like growth …); assay: MSD multispot ECL, antigen spotted on plate, Fab in solution; blank spot of this row 254
[8] = molecular target: T2, rHuman P-Cadherin/Fc Chimera, CF (R&D …); assay: as above
[9] = molecular target: T3, Recombinant Human DLL4 (R&D Systems …); assay: as above
[10] = molecular target: T4, rHuman ErbB2/Fc Chimera, CF (R&D …); assay: as above
[11] = molecular target: T5, rHuman EGF R/Fc Chimera, CF (R&D …); assay: as above
[12] = molecular target: T6, rHuman HGF R/c-MET/Fc Chimera, CF (R&D …); assay: as above
[13] = molecular target: T1, rHuman IGF-1 sR (insulin-like growth …); assay: MSD multispot ECL, antigen spotted on plate, Fab in solution; blank spot of this row 338
[14] = molecular target: T2, rHuman P-Cadherin/Fc Chimera, CF (R&D …); assay: as above
[15] = molecular target: T3, Recombinant Human DLL4 (R&D Systems …); assay: as above
[16] = molecular target: T4, rHuman ErbB2/Fc Chimera, CF (R&D …); assay: as above
[17] = molecular target: T5, rHuman EGF R/Fc Chimera, CF (R&D …); assay: as above
[18] = molecular target: T6, rHuman HGF R/c-MET/Fc Chimera, CF (R&D …); assay: as above
[19] = molecular target: T1, rHuman IGF-1 sR (insulin-like growth …); assay: MSD multispot ECL, antigen spotted on plate, Fab in solution; blank spot of this row 407
[20] = molecular target: T2, rHuman P-Cadherin/Fc Chimera, CF (R&D …); assay: as above
[21] = molecular target: T3, Recombinant Human DLL4 (R&D Systems …); assay: as above
[22] = molecular target: T4, rHuman ErbB2/Fc Chimera, CF (R&D …); assay: as above
[23] = molecular target: T5, rHuman EGF R/Fc Chimera, CF (R&D …); assay: as above
[24] = molecular target: T6, rHuman HGF R/c-MET/Fc Chimera, CF (R&D …); assay: as above
[25] = molecular target: T7, Recombinant Human DLL4 (delta-like protein 4) (human, UniProt Q9NR61 27-524); assay: SPR, Fab on recombinant human DLL4
T7 construct: Bought recombinant human DLL4 (R&D Systems Cat#1506-D4/CF); also called rHuman DLL4; Delta-like ligand 4

[26] = molecular target: T7, Recombinant Human DLL4 (delta-like …); assay: SPR, Fab on recombinant human DLL4; two-site binding, this site 10% by the footnote
[27] = molecular target: T7, Recombinant Human DLL4 (delta-like …); assay: SPR, Fab on recombinant human DLL4; two-site binding, this site 89% by the footnote
[28] = molecular target: T8, rHuman EGF R/Fc Chimera, CF (R&D Systems Cat#344-ER) (human, UniProt P00533 25-645); assay: MSD Multispot ECL, antigen spotted on plate, Fab in solution; blank spot of the row 373
T8 construct: Bought recombinant Fc chimera; also called epidermal growth factor receptor; Fc part of the bought chimera not given

[29] = molecular target: T9, rHuman HGF R/c-MET/Fc Chimera, CF (R&D Systems Cat#358-MT/CF) (human, UniProt P08581 25-932); assay: as above
T9 construct: Bought recombinant Fc chimera; also called HGF R/Fc; hepatocyte growth factor receptor; Fc part of the bought chimera not given

[30] = molecular target: T10, rHuman Notch-1/Fc Chimera, CF (R&D Systems Cat#3647-TK) (human, UniProt P46531 19-526); assay: as above
T10 construct: Bought recombinant Fc chimera; Fc part of the bought chimera not given

[31] = molecular target: T11, rHuman CD44/Fc Chimera, CF (R&D Systems Cat#3660-CD) (human, UniProt P16070 21-220); assay: as above
T11 construct: Bought recombinant Fc chimera; Fc part of the bought chimera not given

[32] = molecular target: T12, rHuman P-Cadherin/Fc Chimera, CF (R&D Systems Cat#861-PC) (human, UniProt P22223 108-654); assay: as above
T12 construct: Bought recombinant Fc chimera; Fc part of the bought chimera not given

[33] = molecular target: T13, rHuman Erythropoietin R/Fc Chimera, CF (R&D Systems Cat#963-ER) (human, UniProt P19235 25-250); assay: as above
T13 construct: Bought recombinant Fc chimera; also called EPO R; EPO R/Fc; Fc part of the bought chimera not given
T13 sequence (looked up): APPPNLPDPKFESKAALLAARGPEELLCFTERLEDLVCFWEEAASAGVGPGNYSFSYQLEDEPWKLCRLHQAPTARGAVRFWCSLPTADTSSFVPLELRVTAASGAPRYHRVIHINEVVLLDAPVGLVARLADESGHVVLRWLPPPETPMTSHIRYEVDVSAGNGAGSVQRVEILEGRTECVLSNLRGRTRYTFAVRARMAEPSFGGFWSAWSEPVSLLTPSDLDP

[34] = molecular target: T14, Recombinant Human DLL4 (R&D Systems Cat#1506-D4/CF) (human, UniProt Q9NR61 27-524); assay: as above
T14 construct: Bought recombinant protein; also called delta-like protein 4; Delta-like 4

ECL signal [1]: 173 | ECL signal [2]: 240 | ECL signal [3]: 132000 | ECL signal [4]: 322 | ECL signal [5]: 409 | ECL signal [6]: 263 | ECL signal [7]: 306 | ECL signal [8]: 138 | ECL signal [9]: 148000 | ECL signal [10]: 351 | ECL signal [11]: 209 | ECL signal [12]: 176 | ECL signal [13]: 468 | ECL signal [14]: 399 | ECL signal [15]: 149000 | ECL signal [16]: 379 | ECL signal [17]: 425 | ECL signal [18]: 332 | ECL signal [19]: 357 | ECL signal [20]: 277 | ECL signal [21]: 126000 | ECL signal [22]: 292 | ECL signal [23]: 329 | ECL signal [24]: 237
B1: Fab VH1-46_IGHD6-6*01_IGHJ1*01 S102A/S103P/S104F/H111F (H:APFF) & L6_IGKJ1*01 (Fab, V domains shown)
VH: QVQLVQSGAEVKKPGASVKVSCKASGYTFTSYYMHWVRQAPGQGLEWMGIINPSGGSTSYAQKFQGRVTMTRDTSTSTVYMELSSLRSEDTAVYYCAREEYAPFSAEYFQFWGQGTLVTVSS
VL: not shown
notes: Fab expressed in E. coli from plasmid A (CH1, His6 and Flag tags) and plasmid C (kappa CL); also called wildtype (light chain); H:APFF & L:wt

koff [25]: 0.0689 s⁻¹ | kon [25]: 444000 M⁻¹ s⁻¹ | Kd [26]: 14 nM | Kd [27]: 155 nM
B2: Fab VH1-46_IGHD6-6*01_IGHJ1*01 S102A/S103P/S104F/H111F (APFF) & L6_IGKJ1*01 S28N/S30D/S31H (NDH) (Fab, V domains shown)
VH: B1 VH
VL: EIVLTQSPATLSLSPGERATLSCRASQNVDHYLAWYQQKPGQAPRLLIYDASNRATGIPARFSGSGSGTDFTLTISSLEPEDFAVYYCQQRSNWPPWTFGQGTKVEIKR
notes: Fab with CH1 (Plasmid A, His6 and Flag tags) and kappa CL (Plasmid C); Some paragraphs print S28D/S30N/S31H for the same NDH chain; also called H:APFF & L:NDH; APFF-NDH

ECL signal [28]: 757 | ECL signal [29]: 803 | ECL signal [30]: 493 | ECL signal [31]: 547 | ECL signal [32]: 212 | ECL signal [33]: 551 | ECL signal [34]: 45500
B3: Fab VH5-51_IGHD5-18*01>3_IGHJ4*01 G100K/G104T G24A & V3-4_IGLJ1*01 (Fab, V domains shown)
VH: EVQLVQSGAEVKKPGESLKISCKASGYSFTSYWIGWVRQMPGKGLEWMGIIYPGDSDTRYSPSFQGQVTISADKSISTAYLQWSSLKASDTAMYYCARRKYSYTYDYFDYWGQGTLVTVSS
VL: QTVVTQEPSFSVSPGGTVTLTCGLSSGSVSTSYYPSWYQQTPGQAPRTLIYSTNTRSSGVPDRFSGSILGNKAALTITGAQADDESDYYCVLYMGSGISYVFGTGTKVTVL
notes: Fab made in E. coli; VH cloned into Plasmid A (CH1, His6 and Flag tags), lambda VL into Plasmid E (lambda CL); also called KT G24A
